In IntAct's records for PubMed 35512704:

B1: Mothers against decapentaplegic homolog 4 (Homo sapiens), Q13485 (parent)
chain: MDNMSITNTPTSNDACLSIVHSLMCHRQGGESETFAKRAIESLVKKLKEKKDELDSLITAITTNGAHPSKCVTIQRTLDGRLQVAGRKGFPHVIYARLWRWPDLHKNELKHVKYCQYAFDLKCDSVCVNPYHYERVVSPGIDLSGLTLQSNAPSSMMVKDEYVHDFEGQPSLSTEGHSIQTIQHPPSNRASTETYSTPALLAPSESNATSTANFPNIPVASTSQPASILGGSHSEGLLQIASGPQPGQQQNGFTGQPATYHHNSTTTWTGSRTAPYTPNLPHHQNGHLQHHPPMPPHPGHYWPVHNELAFQPPISNHPAPEYWCSIAYFEMDVQVGETFKVPSSCPIVTVDGYVDPSGGDRFCLGQLSNVHRTEAIERARLHIGKGVQLECKGEGDVWVRCLSDHAVFVQSYYLDREAGRAPGDAVHKIYPSAYIKVFDLRQCHRQMQQQAATAQAAAAAQAAAVAGNIPGPGSVGGIAPAISLSAAAGIGVDDLRRLCILRMSFVKGWGPDYPRQSIKETPCWIEIHLHRALQLLDEVLHTMPIADPQPLD
partner: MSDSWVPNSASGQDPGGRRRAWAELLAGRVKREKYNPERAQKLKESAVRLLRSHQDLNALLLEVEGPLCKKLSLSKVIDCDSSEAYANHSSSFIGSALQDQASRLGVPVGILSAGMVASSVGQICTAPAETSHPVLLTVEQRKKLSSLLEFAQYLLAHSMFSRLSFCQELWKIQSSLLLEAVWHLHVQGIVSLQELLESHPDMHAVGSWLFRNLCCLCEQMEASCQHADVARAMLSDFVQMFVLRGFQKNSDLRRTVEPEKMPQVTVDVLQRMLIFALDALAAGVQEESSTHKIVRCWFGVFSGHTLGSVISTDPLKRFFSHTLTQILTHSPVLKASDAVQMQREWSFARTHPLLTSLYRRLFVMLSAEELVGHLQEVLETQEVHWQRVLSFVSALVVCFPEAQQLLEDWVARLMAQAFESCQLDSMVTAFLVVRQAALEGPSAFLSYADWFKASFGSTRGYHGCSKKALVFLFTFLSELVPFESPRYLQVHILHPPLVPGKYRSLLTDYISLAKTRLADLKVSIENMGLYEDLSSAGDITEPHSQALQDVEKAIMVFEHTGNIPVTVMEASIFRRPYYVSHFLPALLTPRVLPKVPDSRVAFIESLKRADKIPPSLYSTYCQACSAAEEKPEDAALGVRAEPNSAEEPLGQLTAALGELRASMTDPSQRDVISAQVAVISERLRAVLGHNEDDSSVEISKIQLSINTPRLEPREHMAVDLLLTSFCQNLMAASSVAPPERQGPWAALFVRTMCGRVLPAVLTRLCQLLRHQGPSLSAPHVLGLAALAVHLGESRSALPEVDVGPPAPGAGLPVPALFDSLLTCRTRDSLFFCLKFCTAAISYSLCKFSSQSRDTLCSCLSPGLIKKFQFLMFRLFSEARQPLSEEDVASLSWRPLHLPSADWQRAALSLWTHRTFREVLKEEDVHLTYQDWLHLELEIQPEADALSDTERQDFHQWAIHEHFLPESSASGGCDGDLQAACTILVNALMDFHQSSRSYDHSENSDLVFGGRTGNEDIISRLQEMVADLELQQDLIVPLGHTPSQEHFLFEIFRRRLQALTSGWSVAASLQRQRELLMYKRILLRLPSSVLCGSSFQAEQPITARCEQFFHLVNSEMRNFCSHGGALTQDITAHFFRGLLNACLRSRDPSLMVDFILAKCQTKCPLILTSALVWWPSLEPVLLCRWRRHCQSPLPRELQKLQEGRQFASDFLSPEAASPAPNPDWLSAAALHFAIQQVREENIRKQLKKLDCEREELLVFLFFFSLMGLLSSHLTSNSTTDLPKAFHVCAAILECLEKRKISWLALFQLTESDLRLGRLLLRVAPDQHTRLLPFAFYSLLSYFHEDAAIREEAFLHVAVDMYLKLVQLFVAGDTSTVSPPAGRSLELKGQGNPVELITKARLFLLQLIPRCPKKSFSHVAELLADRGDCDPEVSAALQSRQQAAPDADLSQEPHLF
B2: Mothers against decapentaplegic homolog 4 (Homo sapiens), Q13485 (parent)
chain: B1 chain
partner: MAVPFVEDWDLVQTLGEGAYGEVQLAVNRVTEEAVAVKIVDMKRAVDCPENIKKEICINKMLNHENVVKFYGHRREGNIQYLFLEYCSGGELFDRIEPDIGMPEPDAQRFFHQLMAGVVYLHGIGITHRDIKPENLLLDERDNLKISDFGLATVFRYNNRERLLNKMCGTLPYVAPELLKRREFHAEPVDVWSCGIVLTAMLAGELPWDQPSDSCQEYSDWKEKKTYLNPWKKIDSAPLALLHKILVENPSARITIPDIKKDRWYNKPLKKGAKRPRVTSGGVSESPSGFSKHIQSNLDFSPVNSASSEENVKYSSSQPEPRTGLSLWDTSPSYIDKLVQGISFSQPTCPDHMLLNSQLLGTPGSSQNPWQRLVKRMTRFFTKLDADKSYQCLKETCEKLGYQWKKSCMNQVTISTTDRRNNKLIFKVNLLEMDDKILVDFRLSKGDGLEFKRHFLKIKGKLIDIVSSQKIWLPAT
B3: 14-3-3 protein zeta/delta (Homo sapiens), P63104 (parent)
chain: MDKNELVQKAKLAEQAERYDDMAACMKSVTEQGAELSNEERNLLSVAYKNVVGARRSSWRVVSSIEQKTEGAEKKQQMAREYREKIETELRDICNDVLSLLEKFLIPNASQAESKVFYLKMKGDYYRYLAEVAAGDDKKGIVDQSQQAYQEAFEISKKEMQPTHPIRLGLALNFSVFYYEILNSPEKACSLAKTAFDEAIAELDTLSEESYKDSTLIMQLLRDNLTLWTSDTQGDEAEAGEGGEN
B4: Mothers against decapentaplegic homolog 4 (Homo sapiens), Q13485 (parent)
chain: B1 chain
partner: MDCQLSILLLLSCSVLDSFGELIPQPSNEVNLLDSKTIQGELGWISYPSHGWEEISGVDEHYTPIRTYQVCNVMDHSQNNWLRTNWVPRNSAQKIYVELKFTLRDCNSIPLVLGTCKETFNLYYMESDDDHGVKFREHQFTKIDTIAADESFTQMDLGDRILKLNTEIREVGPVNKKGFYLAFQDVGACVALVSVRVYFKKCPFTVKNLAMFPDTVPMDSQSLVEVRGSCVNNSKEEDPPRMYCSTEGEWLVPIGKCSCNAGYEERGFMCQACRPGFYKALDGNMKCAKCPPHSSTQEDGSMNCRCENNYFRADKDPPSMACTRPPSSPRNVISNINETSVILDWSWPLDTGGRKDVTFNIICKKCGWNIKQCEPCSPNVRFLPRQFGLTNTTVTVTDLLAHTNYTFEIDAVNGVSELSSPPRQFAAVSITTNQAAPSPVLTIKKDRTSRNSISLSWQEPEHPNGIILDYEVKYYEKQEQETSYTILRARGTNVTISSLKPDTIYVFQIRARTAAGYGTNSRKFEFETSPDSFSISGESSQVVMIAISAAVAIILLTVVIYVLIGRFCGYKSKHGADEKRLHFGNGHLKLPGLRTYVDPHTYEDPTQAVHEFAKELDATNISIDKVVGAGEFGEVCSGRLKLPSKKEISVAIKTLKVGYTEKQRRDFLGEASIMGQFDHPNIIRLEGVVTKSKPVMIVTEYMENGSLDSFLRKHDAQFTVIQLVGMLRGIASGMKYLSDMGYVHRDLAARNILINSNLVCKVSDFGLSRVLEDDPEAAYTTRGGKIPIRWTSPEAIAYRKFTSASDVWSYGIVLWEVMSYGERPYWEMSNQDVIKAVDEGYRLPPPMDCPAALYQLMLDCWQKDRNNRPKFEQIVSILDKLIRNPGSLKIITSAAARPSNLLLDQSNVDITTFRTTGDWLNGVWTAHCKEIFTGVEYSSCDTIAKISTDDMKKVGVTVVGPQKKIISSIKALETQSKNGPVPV

Variants of: B1
Conditions: with fanca_human FANCA

| effect of a mutation on the interaction | Variant |
| --- | --- |
| with no effect | G386D |

Variants of: B1
Conditions: with fanca_human FANCA
Remark: another data set of the same source

| effect of a mutation on the interaction | Variant |
| --- | --- |
| with no effect | R361C |

Variants of: B1
Conditions: with fanca_human FANCA
Remark: another data set of the same source

| effect of a mutation on the interaction | Variant |
| --- | --- |
| with no effect | R361H |

Variants of: B1
Conditions: with fanca_human FANCA
Remark: another data set of the same source

| effect of a mutation on the interaction | Variant |
| --- | --- |
| with no effect | D351H |

Variants of: B2
Conditions: with chk1_human CHEK1, O14757

| effect of a mutation on the interaction | Variant |
| --- | --- |
| with no effect | R361C |

Variants of: B2
Conditions: with chk1_human CHEK1, O14757
Remark: another data set of the same source

| effect of a mutation on the interaction | Variant |
| --- | --- |
| with no effect | R361H |

Variants of: B2
Conditions: with chk1_human CHEK1, O14757
Remark: another data set of the same source

| effect of a mutation on the interaction | Variant |
| --- | --- |
| with no effect | G386D |

Variants of: B2
Conditions: with chk1_human CHEK1, O14757
Remark: another data set of the same source

| effect of a mutation on the interaction | Variant |
| --- | --- |
| with no effect | D351H |

Variants of: B3
Conditions: with braf_human BRAF

| effect of a mutation on the interaction | Variant |
| --- | --- |
| disrupting interaction strength | K49E |

Variants of: B4
Conditions: with epha3_human EPHA3, P29320

| effect of a mutation on the interaction | Variant |
| --- | --- |
| with no effect | R361C |

Variants of: B4
Conditions: with epha3_human EPHA3, P29320
Remark: another data set of the same source

| effect of a mutation on the interaction | Variant |
| --- | --- |
| with no effect | R361H |

Variants of: B4
Conditions: with epha3_human EPHA3, P29320
Remark: another data set of the same source

| effect of a mutation on the interaction | Variant |
| --- | --- |
| with no effect | D351H |
